What all share (test): native MS
In data set [1] the target is 15N-labelled Kis antitoxin (Killing suppressor) of the parD operon of plasmid R1 (Escherichia coli (plasmid R1)).
Data set [2] has the same target. The source holds these as a separate data set.
The data set “native MS” deals with the molecule itself.

Read-outs that look alike come from different tables or passages of the source.

Chain of 15N-labelled Kis antitoxin (Killing suppressor) of the parD operon of plasmid R1 (Escherichia coli (plasmid R1)) (P13975 whole entry): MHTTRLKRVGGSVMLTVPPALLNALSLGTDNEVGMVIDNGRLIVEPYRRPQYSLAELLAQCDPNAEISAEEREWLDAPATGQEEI

In data set [1], “15N-labelled Kis antitoxin (Killing suppressor) of the parD operon of plasmid R1 (natural protein)” gave a stoichiometry N (subunits in the oligomer) of 2.
In data set [2], “Kid toxin (Killing determinant) of the parD operon of plasmid R1 (from UniProt P13976 24-133) (natural protein)” registered a stoichiometry N (Kid per Kis (2:1)) of 2, a stoichiometry N (Kid per Kis (2:2)) of 1, a stoichiometry N (Kid per Kis (4:2)) of 2 and a stoichiometry N (Kid per Kis (4:4)) of 1. This molecule had a stoichiometry N (Kid per Kis (4:6), on the 30-bp parD DNA) in data set [2] of 0.67. In data set [1], this molecule had a stoichiometry N (Kid per Kis (2:1)) of 2 and a stoichiometry N (Kid per Kis (4:2)) of 2.

B1: Kid toxin (Killing determinant) of the parD operon of plasmid R1 (natural protein)
chain: MERGEIWLVSLDPTAGHEQQGTRPVLIVTPAAFNRVTRLPVVVPVTSGGNFARTAGFAVSLDGVGIRTTGVVRCDQPRTIDMKARGGKRLERVPETIMNEVLGRLSTILT
Regarding B1, the stoichiometry N (in general, a count of units in the complex or per binding partner) in “native MS” was 2 subunits in the oligomer.

The record behind these values is paper PMC1865072 (Nucleic Acids Research, 2007).
